From patent US20070280985A1

Experiments:
Assay in all cases: cell-based or functional assay
Connexin 43 (human) = Connexin 43 (human) (UniProt P17302)
Connexin 37 (human) = Connexin 37 (human) (UniProt P35212)
Connexin 40 (human) = Connexin 40 (human) (UniProt P36382)
Chain of UniProt P36382 (P36382 whole entry): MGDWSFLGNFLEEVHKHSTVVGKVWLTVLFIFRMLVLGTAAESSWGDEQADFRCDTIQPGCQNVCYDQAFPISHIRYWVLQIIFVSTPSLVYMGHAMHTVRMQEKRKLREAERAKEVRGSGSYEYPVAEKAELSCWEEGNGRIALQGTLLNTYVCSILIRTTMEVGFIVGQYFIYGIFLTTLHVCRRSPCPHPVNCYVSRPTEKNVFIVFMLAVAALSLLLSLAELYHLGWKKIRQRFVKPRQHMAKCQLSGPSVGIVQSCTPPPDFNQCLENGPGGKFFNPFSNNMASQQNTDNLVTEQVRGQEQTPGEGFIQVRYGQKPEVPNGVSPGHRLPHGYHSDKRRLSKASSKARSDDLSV

Chain of UniProt P35212 (P35212 whole entry): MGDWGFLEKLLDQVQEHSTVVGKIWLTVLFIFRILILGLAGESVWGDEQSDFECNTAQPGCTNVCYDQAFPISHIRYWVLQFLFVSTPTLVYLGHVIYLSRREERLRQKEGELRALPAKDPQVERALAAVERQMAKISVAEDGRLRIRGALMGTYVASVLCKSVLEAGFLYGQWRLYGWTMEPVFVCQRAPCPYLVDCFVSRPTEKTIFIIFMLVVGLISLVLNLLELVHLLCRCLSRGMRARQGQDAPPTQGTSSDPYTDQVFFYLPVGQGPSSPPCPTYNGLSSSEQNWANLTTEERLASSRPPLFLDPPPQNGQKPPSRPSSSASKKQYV
Chain of UniProt P17302 (P17302 2-382): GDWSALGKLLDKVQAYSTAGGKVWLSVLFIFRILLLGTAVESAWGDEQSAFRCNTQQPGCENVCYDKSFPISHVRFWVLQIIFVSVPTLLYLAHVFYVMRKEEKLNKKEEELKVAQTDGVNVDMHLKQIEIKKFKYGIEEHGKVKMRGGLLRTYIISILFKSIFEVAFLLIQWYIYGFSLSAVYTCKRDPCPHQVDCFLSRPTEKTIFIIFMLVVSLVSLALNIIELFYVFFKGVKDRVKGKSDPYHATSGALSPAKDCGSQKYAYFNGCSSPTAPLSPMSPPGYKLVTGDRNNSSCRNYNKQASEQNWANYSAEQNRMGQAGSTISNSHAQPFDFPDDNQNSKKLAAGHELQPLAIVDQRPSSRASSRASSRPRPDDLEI

Lucifer Yellow dye-coupling (GJIC) in HAEC after 16 hours of flow (Connexin 43 (human)) [%] | decrease in flow-induced GJIC (dye-coupling) in HAEC (Connexin 43 (human)) [%] | Lucifer Yellow dye-coupling (GJIC) in HAEC after 16 hours of flow (Connexin 37 (human)) [%] | decrease in flow-induced GJIC (dye-coupling) in HAEC (Connexin 37 (human)) [%] | decrease in Lucifer Yellow dye-coupling (GJIC) in HAEC after 5 hours of flow (Connexin 40 (human)) [%] | decrease in Lucifer Yellow dye-coupling (GJIC) in HAEC after 16 hours of flow (Connexin 40 (human)) [%] | Substance
26 | 25 | 26 | 25 |  |  | Cx mimetic peptide 43,37Gap27
 |  |  |  | 33 | 57 | mimetic peptide 40Gap27
